{
  "source": "paper PMC12295664",
  "key": {"[1]": {"target": "AEDANS–S1 (myosin subfragment-1 labeled with 1,5-IAEDANS at Cys707)", "assay": "polarized fluorescence of AEDANS-S1 in ghost fibers", "details": "read off a plot"}, "[2]": {"target": "F-actin of rabbit psoas ghost muscle fibers (rabbit (endogenous in psoas muscle fibers)) (UniProt P68135)", "assay": "reconstitution of ghost muscle fibers, washing, SDS-PAGE densitometry; single rabbit psoas ghost fibers (F-actin held in the fiber) incubated with troponin, tropomyosin and S1 at 1.0–2.5 mg/mL in 50 mM KCl, 3 mM MgCl2, 1 mM DTT, 6.7 mM K,Na–phosphate pH 7.0; unbound protein washed off; 5–10 fibers on SDS-PAGE, bands quantified with calibration curves; average molar ratios to actin"}, "[3]": {"details": "S1 (no nucleotide), Actin + Tpm + Tn, + Ca2+, parent: est. 0.16"}, "[4]": {"details": "S1 (no nucleotide), Actin + Tpm + Tn, - Ca2+, parent: est. 0.14"}, "[5]": {"details": "S1 + ADP, Actin + Tpm + Tn, + Ca2+, parent: est. 0.16"}, "[6]": {"details": "S1 + ADP, Actin + Tpm + Tn, - Ca2+, parent: est. 0.18"}, "[7]": {"details": "S1 + ATP, Actin + Tpm + Tn, + Ca2+, parent: est. 0.46"}, "[8]": {"details": "S1 + ATP, Actin + Tpm + Tn, - Ca2+, parent: est. 0.36"}, "[9]": {"details": "scale: mol actin per mol tropomyosin"}, "[10]": {"details": "S1 (no nucleotide), Actin + Tpm + Tn, - Ca2+, parent: est. 0.26"}, "[11]": {"details": "S1 + ADP, Actin + Tpm + Tn, + Ca2+, parent: est. 0.17"}, "[12]": {"details": "S1 + ADP, Actin + Tpm + Tn, - Ca2+, parent: est. 0.27"}, "[13]": {"details": "S1 + ATP, Actin + Tpm + Tn, - Ca2+, parent: est. 0.46"}, "[14]": {"details": "S1 + Tpm, no troponin, no nucleotide, parent: est. 0.16"}},
  "data": [
    {"substance": "wild-type α-tropomyosin (Tpm1.1) with N-terminal Met–Ala–Ser extension R167H", "values": [
      {"measurement": "other: N (relative number of disordered fluorophores)", "setting": "[1]; [3]", "value": 0.14, "unit": "rel. units"},
      {"measurement": "other: N (relative number of disordered fluorophores)", "setting": "[1]; [4]", "value": 0.085, "unit": "rel. units"},
      {"measurement": "other: N (relative number of disordered fluorophores)", "setting": "[1]; [5]", "value": 0.2, "unit": "rel. units"},
      {"measurement": "other: N (relative number of disordered fluorophores)", "setting": "[1]; [6]", "value": 0.24, "unit": "rel. units"},
      {"measurement": "other: N (relative number of disordered fluorophores)", "setting": "[1]; [7]", "value": 0.44, "unit": "rel. units"},
      {"measurement": "other: N (relative number of disordered fluorophores)", "setting": "[1]; [8]", "value": 0.35, "unit": "rel. units"}
    ]},
    {"substance": "wild-type α-tropomyosin (Tpm1.1) with N-terminal Met–Ala–Ser extension (natural protein)", "values": [
      {"measurement": "stoichiometry N", "setting": "[2]; [9]", "value": 6.9}
    ]},
    {"substance": "α-tropomyosin (rat TPM1) K168E with N-terminal Met–Ala–Ser extension (natural protein)", "values": [
      {"measurement": "stoichiometry N", "setting": "[2]; [9]", "value": 6.9}
    ]},
    {"substance": "wild-type α-tropomyosin (Tpm1.1) with N-terminal Met–Ala–Ser extension K168E", "values": [
      {"measurement": "other: N (relative number of disordered fluorophores)", "setting": "[1]; [3]", "value": 0.17, "unit": "rel. units"},
      {"measurement": "other: N (relative number of disordered fluorophores)", "setting": "[1]; [4]", "value": 0.06, "unit": "rel. units"},
      {"measurement": "other: N (relative number of disordered fluorophores)", "setting": "[1]; [5]", "value": 0.11, "unit": "rel. units"},
      {"measurement": "other: N (relative number of disordered fluorophores)", "setting": "[1]; [6]", "value": 0.23, "unit": "rel. units"},
      {"measurement": "other: N (relative number of disordered fluorophores)", "setting": "[1]; [7]", "value": 0.34, "unit": "rel. units"},
      {"measurement": "other: N (relative number of disordered fluorophores)", "setting": "[1]; [8]", "value": 0.36, "unit": "rel. units"}
    ]},
    {"substance": "wild-type β-tropomyosin (human TPM2) with N-terminal Met–Ala–Ser extension (natural protein)", "values": [
      {"measurement": "stoichiometry N", "setting": "[2]; [9]", "value": 6.9}
    ]},
    {"substance": "wild-type β-tropomyosin (human TPM2) with N-terminal Met–Ala–Ser extension R91G", "values": [
      {"measurement": "other: N (relative number of disordered fluorophores)", "setting": "[1]; S1 (no nucleotide), Actin + Tpm + Tn, + Ca2+, parent: est. 0.27", "value": 0.26, "unit": "rel. units"},
      {"measurement": "other: N (relative number of disordered fluorophores)", "setting": "[1]; S1 (no nucleotide), Actin + Tpm + Tn, - Ca2+, parent: est. 0.29", "value": 0.28, "unit": "rel. units"},
      {"measurement": "other: N (relative number of disordered fluorophores)", "setting": "[1]; S1 + ADP, Actin + Tpm + Tn, + Ca2+, parent: est. 0.30", "value": 0.28, "unit": "rel. units"},
      {"measurement": "other: N (relative number of disordered fluorophores)", "setting": "[1]; S1 + ADP, Actin + Tpm + Tn, - Ca2+, parent: est. 0.32", "value": 0.27, "unit": "rel. units"},
      {"measurement": "other: N (relative number of disordered fluorophores)", "setting": "[1]; S1 + ATP, Actin + Tpm + Tn, + Ca2+, parent: est. 0.45", "value": 0.61, "unit": "rel. units"},
      {"measurement": "other: N (relative number of disordered fluorophores)", "setting": "[1]; S1 + ATP, Actin + Tpm + Tn, - Ca2+, parent: est. 0.60", "value": 0.38, "unit": "rel. units"},
      {"measurement": "other: N (relative number of disordered fluorophores)", "setting": "[1]; S1 + Tpm, no troponin, no nucleotide, parent: est. 0.28", "value": 0.27, "unit": "rel. units"}
    ]},
    {"substance": "α-tropomyosin (rat TPM1) R167H with N-terminal Met–Ala–Ser extension (natural protein)", "values": [
      {"measurement": "stoichiometry N", "setting": "[2]; [9]", "value": 6.9}
    ]},
    {"substance": "β-tropomyosin (human TPM2) Q147P with N-terminal Met–Ala–Ser extension (natural protein)", "values": [
      {"measurement": "stoichiometry N", "setting": "[2]; [9]", "value": 6.9}
    ]},
    {"substance": "wild-type γ-tropomyosin (Tpm3.12, human TPM3) with N-terminal Met–Ala–Ser extension R90P", "values": [
      {"measurement": "other: N (relative number of disordered fluorophores)", "setting": "[1]; S1 (no nucleotide), Actin + Tpm + Tn, + Ca2+, parent: est. 0.15", "value": 0.2, "unit": "rel. units"},
      {"measurement": "other: N (relative number of disordered fluorophores)", "setting": "[1]; [10]", "value": 0.17, "unit": "rel. units"},
      {"measurement": "other: N (relative number of disordered fluorophores)", "setting": "[1]; [11]", "value": 0.17, "unit": "rel. units"},
      {"measurement": "other: N (relative number of disordered fluorophores)", "setting": "[1]; [12]", "value": 0.16, "unit": "rel. units"},
      {"measurement": "other: N (relative number of disordered fluorophores)", "setting": "[1]; S1 + ATP, Actin + Tpm + Tn, + Ca2+, parent: est. 0.32", "value": 0.095, "unit": "rel. units"},
      {"measurement": "other: N (relative number of disordered fluorophores)", "setting": "[1]; [13]", "value": 0.1, "unit": "rel. units"},
      {"measurement": "other: N (relative number of disordered fluorophores)", "setting": "[1]; [14]", "value": 0.15, "unit": "rel. units"}
    ]},
    {"substance": "wild-type γ-tropomyosin (Tpm3.12, human TPM3) with N-terminal Met–Ala–Ser extension E173A", "values": [
      {"measurement": "other: N (relative number of disordered fluorophores)", "setting": "[1]; S1 (no nucleotide), Actin + Tpm + Tn, + Ca2+, parent: est. 0.17", "value": 0.1, "unit": "rel. units"},
      {"measurement": "other: N (relative number of disordered fluorophores)", "setting": "[1]; [10]", "value": 0.1, "unit": "rel. units"},
      {"measurement": "other: N (relative number of disordered fluorophores)", "setting": "[1]; [11]", "value": 0.13, "unit": "rel. units"},
      {"measurement": "other: N (relative number of disordered fluorophores)", "setting": "[1]; [12]", "value": 0.13, "unit": "rel. units"},
      {"measurement": "other: N (relative number of disordered fluorophores)", "setting": "[1]; S1 + ATP, Actin + Tpm + Tn, + Ca2+, parent: est. 0.18", "value": 0.28, "unit": "rel. units"},
      {"measurement": "other: N (relative number of disordered fluorophores)", "setting": "[1]; [13]", "value": 0.35, "unit": "rel. units"},
      {"measurement": "other: N (relative number of disordered fluorophores)", "setting": "[1]; [14]", "value": 0.15, "unit": "rel. units"}
    ]},
    {"substance": "γ-tropomyosin (Tpm3.12, human TPM3) E173A with N-terminal Met–Ala–Ser extension (natural protein)", "values": [
      {"measurement": "stoichiometry N", "setting": "[2]; [9]", "value": 6.9}
    ]},
    {"substance": "γ-tropomyosin (Tpm3.12, human TPM3) E150A with N-terminal Met–Ala–Ser extension (natural protein)", "values": [
      {"measurement": "stoichiometry N", "setting": "[2]; [9]", "value": 6.9}
    ]},
    {"substance": "β-tropomyosin (human TPM2) R91G with N-terminal Met–Ala–Ser extension (natural protein)", "values": [
      {"measurement": "stoichiometry N", "setting": "[2]; [9]", "value": 6.9}
    ]},
    {"substance": "troponin (rabbit skeletal muscle troponin complex) (from UniProt P02586 1-160; P02643 1-182)", "values": [
      {"measurement": "stoichiometry N", "setting": "[2]; scale: mol actin per mol troponin", "value": 7.5}
    ]},
    {"substance": "myosin subfragment-1 (S1), lacking regulatory light chains (domain or fragment)", "values": [
      {"measurement": "stoichiometry N", "setting": "[2]; scale: mol actin per mol S1", "value": 4.1}
    ]},
    {"substance": "wild-type β-tropomyosin (human TPM2) with N-terminal Met–Ala–Ser extension E117K", "values": [
      {"measurement": "other: N (relative number of disordered fluorophores)", "setting": "[1]; S1 (no nucleotide), Actin + Tpm + Tn, + Ca2+, parent: est. 0.40", "value": 0.38, "unit": "rel. units"},
      {"measurement": "other: N (relative number of disordered fluorophores)", "setting": "[1]; S1 (no nucleotide), Actin + Tpm + Tn, - Ca2+, parent: est. 0.25", "value": 0.28, "unit": "rel. units"},
      {"measurement": "other: N (relative number of disordered fluorophores)", "setting": "[1]; S1 + ADP, Actin + Tpm + Tn, + Ca2+, parent: est. 0.39", "value": 0.39, "unit": "rel. units"},
      {"measurement": "other: N (relative number of disordered fluorophores)", "setting": "[1]; S1 + ADP, Actin + Tpm + Tn, - Ca2+, parent: est. 0.28", "value": 0.33, "unit": "rel. units"},
      {"measurement": "other: N (relative number of disordered fluorophores)", "setting": "[1]; S1 + ATP, Actin + Tpm + Tn, + Ca2+, parent: est. 0.68", "value": 0.6, "unit": "rel. units"},
      {"measurement": "other: N (relative number of disordered fluorophores)", "setting": "[1]; S1 + ATP, Actin + Tpm + Tn, - Ca2+, parent: est. 0.44", "value": 0.53, "unit": "rel. units"},
      {"measurement": "other: N (relative number of disordered fluorophores)", "setting": "[1]; S1 + Tpm, no troponin, no nucleotide, parent: est. 0.26", "value": 0.39, "unit": "rel. units"}
    ]},
    {"substance": "β-tropomyosin (human TPM2) E117K with N-terminal Met–Ala–Ser extension (natural protein)", "values": [
      {"measurement": "stoichiometry N", "setting": "[2]; [9]", "value": 6.9}
    ]},
    {"substance": "wild-type γ-tropomyosin (Tpm3.12, human TPM3) with N-terminal Met–Ala–Ser extension (natural protein)", "values": [
      {"measurement": "stoichiometry N", "setting": "[2]; [9]", "value": 6.9}
    ]},
    {"substance": "γ-tropomyosin (Tpm3.12, human TPM3) R90P with N-terminal Met–Ala–Ser extension (natural protein)", "values": [
      {"measurement": "stoichiometry N", "setting": "[2]; [9]", "value": 6.9}
    ]}
  ]
}
